Experimental data published in the nanobody polyreactivity screen of Harvey et al. (2022).

Assay: yeast display, Sf9 membrane polyspecificity reagent, FACS + sequencing; frameworks hold sequencing errors
Outline: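 Using colony PCR, genes from sorted yeast display clones were amplified, then sequenced on MiSeq at 2 × 250 and filtered by CDR length. The clones had been stained with 10% biotinylated, detergent-solubilized Sf9 membrane reagent for 1 hour at 4 °C and sorted by FACS into low and high (top ~1%) gates on anti-HA and streptavidin fluorescence. Polyreactivity labels come from the gate of origin.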

Sequence | polyreactivity (PSR sort gate)
QVQLVESGGGLVQAGGSLRLSCAASGITFRKYAMGWSRQAPGKERELVAAISAGGGRTFYADSVKGRFTISRDNAKNTVYLQMNSLKPEDTAVYYCNADLGIGYDYWGQGTQVTVSS | high polyreactivity
QGQLVESGGGLVQAGGSLRLSCAASGFTFYKNTMGWYRQAPGKERELVAAISSSGSSTYYADSVKGRFTISRDNAKNTVYLQMISLKPEDTAVYYCAACSFAYHDDYWGQGTQVTVSS | high polyreactivity
QVQLVESGGGLVQAGGSLRLSCAASGRTLRKYAMGWYRQAPGKERELVAGFTGSAGSTYYADSVKGRFTISRDNAKNTVYLQMNSLKPEDTAVYYCAKSGLRYGFDYWGQGTQVTVSS | high polyreactivity
QVQLVESGGGLVQAGGSLRLSCAASGRIIPYNTMGWYRQAPGKERELVAAISQSDTGTHYADSVKGRFTISRDNAKNTVYLQMNSLKPEDTAVYYCAVDWGYSDDVPYEYWGQGTQVTVSS | low polyreactivity
QVHLVEAGGGLVQAGGSLRYSCAASGYTFKLYAMGWYRQAPGKESELVAAITSGGSTSFADSVKGRFTISRDNAKNTVYLQMNSLKPEDTAVYYCAKRYSSYRAWYRNVGYYYWGLGTQVTVSS | high polyreactivity
QVQLVESGGGLVQAGGSLRLSCAASGSTFTGYTMGWYRQAPGKERELVAAITYRGGSTYYADSVKGRFTISRDNAKNTVYLQMNSLKPEDSAVYYCAAVAVYYEYSPYDYWGQGTQLTVSS | low polyreactivity
QVQLVESGGGLVQAGGSLRLSCAASGSIFQPYAMGWYRQAPGKERELVAAINGRGGSTHYADSVKGRFTISRDNAKNTVYLQMNSLKPEDTAVYYCAATWAYPGSGYVYFYGNDYWGQGTQVTVSS | high polyreactivity
QVQLVESVGGLVQAGGSLRLSCAASGSIFSRNAMGWYRQAPGKERELVAAIRSTVSTYYADSVKGRFTISRDNAKNTVYLQMNSLKPEDTAVYYCATVTHVSPNKYYYWGQGTQVTVSS | high polyreactivity
QVQLVESGGGLVQAGGSLRLSCAASGRIFLVYAMGWYIQAPGKERDLVASISSRGSSTNYADSVKGRFTISRDNANNTDYLQMNSLKPEDTAVYYCAAGVYRPRYQSTAYDYWGQGTQVTVSS | high polyreactivity
QVQLVESGGGLVQAGGSLSLSCAASGRIFYRNAMGWYRQAPGKERELVAGITRGGSTNYADSVKGRFTISRDNAKNTVYLQMNSLKPEDTAVYYCAKAIPAKFYSEAGYDYWGQGTQVTVSS | low polyreactivity
QVQLVESGGGLVQAGGSLRLSCASSGLTFRNYAMGGYRPAPGKERELVAAITVSGGSTYYADSVKGRFTISRDNAKNTVYLQMNSLKPEDTAVYYCAARVIHTTYSRNYYYWGQGTQVTVSS | high polyreactivity
QVQLVESGGGLVQAGGSLRLSCAASGSTFYYNTMGWYRQAPGKERELVAAISSGGSTNYADSVKGRFTISRDNAKNTVYLQMNSLKPEDTAVYYCAKRRGGALYAYRYYYWGQGTQVTVSS | high polyreactivity
QVQLVESGGGLVQAGGSLRLSCAASGSIFGFNAMGWYRQAPGKERELVAAINNGGSTNYADSVKGRFTISRDNAKNTVYLQMNSLKPEDTAVYYCAAVGGWRWSNQDYRYPYYYWGQGTQVTVSS | high polyreactivity
QVQLVESGVGLVQAGGSLSLSCAASGSTFPKYAMGWYRQAPGKERELVAAISGSGGSTYYADSVKGRFTISRDNAKNTVYLQMNSLKREDTAVYYCAVAWNVRGVGARQRYIYGYWGQGTQVTVSS | high polyreactivity
QVQLVESGGGLVQAGGRLRLSSAASGSTFGYYAMGWYRQAPGKERELVAAISAGGGSTYYADSVKGRFTISRDNAKNTVYLQMISLKPEDTAVYYCAARGPHIPVKTYDYWGQGTQVTVSS | high polyreactivity
QVQLVESGGGLVQAGGSLRLSCAASGITLKPNAMGWYRQAPGKERELVAAIDSGGSTNYADSVKGRFTISRDNAKNTVYLQMNSLKPEDTAVYYCAAPYQDRDLQVSYSTYEGGYWGQGTQVTVSS | low polyreactivity
QVQLVESGGGLVQAGGSLRLICAASGSIFFSYAMGWYRQAPGKERELVAAIDYSGGGTYYADSVMGRFTISRDNAKNTVYLQMNSLKPEDTAVYYCNSDTEVWADTFISYRALNYWGQGTQVTVSS | low polyreactivity
QVQLVESGGGLVQAGGSLRLSCAASGRTFFSYAMGWYRQAPGKERELVAAITYSGGRTYYADSVKGRFTISRDNAKNTVYLQMNSLKPVDTAVYYCAATHYREKMDYWGQGTQVTVSS | low polyreactivity
QVQLVESGGGLVQAGGSLRISCAASGSIFYVYAMGWYRQAPGKERELVATISTGGSTYYADSVKGRFTISRDNAKNTVYLQMNSLKPEDTAVYYCNAQFTPRYWGGYDSWGQGTQVTVSS | low polyreactivity
QVQLVESGGGLVQAGGSLRLSCAASGSIFRVYAMGWYRQAPGKERELVAAITYSSGSTYYADSVKGRFTISRDNAKNTVYLQMNSLKPEDTAVYYCAAYWSYYLREFDYWGQGTQVTVSS | high polyreactivity
HVQLVESGGGLVQAGGSLRLSCAASGFTFRLYAMGWYRQAPGKERELVAAINWGGGSTRYADSVKGRFTISRDNAKNTVYLQMNSLKPEDTAVYYCAARRFAYYFQYLGGGYWGQGTQVTVSS | high polyreactivity
QVQLVESGGGLVQAGGSLRLSCADSGSTFLYYAIVWYRQAPGKERELVASITGSGSNTYYADSVKGRFTISRDNAKNTVYLQMNSLKPEDTAVYYCASDPQSDIPSWLWYWGEYDYWGQGTQVTVSS | low polyreactivity

Sequence | polyreactivity (PSR sort gate)
QVQLVESGGGLVQAGGSLRLSCAASGRTFRWNAIGWYRQAPGKERELVASISSGGRTNYADSVKVRFTISRDNEKNTVYLQMNSLKPEDTAVYYCAKRVSWPQLYDYWGQGTQVTVSS | high polyreactivity
QVQHVESGGGLVQAGGSLRLSSAASGHTFHRYAMGWYRQARWKESELVAAISDSGSSSYYADSVKRRFTISRDYAKYTVYLQMNSLKPEDTALYYCAAVSGFFDQYDYWGQGTQVTVSS | low polyreactivity
QVQLVESGGGLVQAGGSLRLSCAASGFIFYRYAMGWYRQQPGKERELVAAISSRGGTTYYADSVKWRFTISRDNAKNTVYLQMNSLKPEDTAVYYCAADRGYKMGYWLQGTQVTVSS | high polyreactivity
QVQLVESGGGLVQAGGSLRLSCAASGSIFPYYDMGWYRQAPGKERELVAAITSSGSTFYADSVKGRFTISRDNAKNTVYLQMNSLKPEVTAVYSCNTRDIRVRPYDYWGQGTQVTVSS | low polyreactivity
QVHLVESGGGLVQAGGSLRLSCAASGRNFYANAMGWYRQAPGKERELVAAISSGGSTYYADSVKGRFTISRDNAKNTVYLQMKSLKPEDTAVYYCAVYTHKKVRPEYDYWGQGTQVTVSS | low polyreactivity
QVQLVESGGGLVQAGGSLRLSCAASGITFNSYAMGWYRQAPGKERELVAAISGSGSSTYYADSVKGRFTISRDNAKNTVYLQMNSLKPEDTAVYYCAATVYSSWTYYTHEYWGQGTQVTVSS | low polyreactivity
QVQLVESGGGLVQEGGSLRLSCAASGGTFRWYTMGWYRQAPGKERELVAAISSTGSTYYADSVKGRFTISRDNAKNTVYLQMNSLKPEDTAVYYCNASYNGKGSWDLDYWGQGTQVTVSS | high polyreactivity
QVQLVESGGGLVQAGGSLRLSCAASGSTFYLYAMGWYRQAPGKERELVASITSGDGSTYYADSVKGRFTISRDNAKNTVYLQMNSLKPEDTAVYYCNAVLEGWFYQYDYWGQGTQVTVSS | low polyreactivity
QVQLVESGGGLVQAGGSLRLSCAASGIIFGLYAMGWYRQAPGKERELVAAITRSGGRTYYADSVKGRFTISRDNAKNTVYFQMNSLKPEDTAVYFCAADASGHSYDYWGQGTEVTVSS | high polyreactivity
QVQLVESGGGLVQAGGSLRLSCADSVSIFRVNAKRWYTQAPGKERELVAGISSRGGTSTYYADSVKGRFTISRDNAKNTVYLQMNSLKPEDTAVYYCNKTDITTSRHDYWRQGTQVTVSS | low polyreactivity
QVQLVESGGGVVQAGGSLRLSCAASGSTFRPYAMGWYRQAPGKERELVAAITFNGDTYADSVKGRFTISRDNAKNTVYLQMNSLKPEDTAVYYCAARNWYYYLRPWTSVGGYYWGQGTQVNVSS | high polyreactivity
QVQLVESGGGLVQAGGSLRLSCAASGGTFGRNVMGWYRQAPGKERELVAAISIRGGSTYYADSVKGRCTISRDNAKNTVYLQMNSLKAEDTAVYYCARDYPTDAYDYWGQGTQVTVSS | low polyreactivity
QVQLVESGGGLVQAGGSLRLSFAASGRTFVINAMGWYRQAPGKERELVAAITWRGGSTYYADSVKGRFTISRDNAKNTVYLQMNSLKPEDTAVYYCAARWFPWLQLKRYDYWGQGTQVTVSS | low polyreactivity
QVQLVESGGGLVQAGGSLRLSCAASGRIYVYYVLGWYRQAPGKERELVAAITYSGGSTYYADSVKGRFTISRDNAKNTVYLQMNSLKPEDTAVYYCNKVDAFGIVRLYYWGQGTQVTVSS | low polyreactivity
QVQIVESGGGLVQAGGSLRLSCAASGRIFRSNTMGWYRPAPGKERELVARISKRGGSTNYADSVKGRFTISRDIAKNTVYLQMNRLKPEDTAVYYCAARYYYAGYYVKYYYWGQGTQVTVSS | high polyreactivity
QVQLVESGAGLVQAGGSLRLSCAASGRIFHWYAMGWYRQAPGKERELVATANTSYADSVKGRFTISRDNAKNTVYLQMNSLKPEDTAVYYCATVGPRGRSLGDYWGQVTQVTVSS | low polyreactivity
QVQHVESGGGLVQAGGSLRLSCAASGSILGWYAMGWYRQAPGKERELDAAITTAGDSTYYADSVKGRFTISRDNAKNTVYLPLNSLKPEDTAVYYCATRYQVRRGSGPSYDYWGQGTQVTVSS | high polyreactivity
QVQLVESGGGLVQAGGSLRLSCAASGFTFNSYDMYWVRQAPGKGLEWVSSINTNGGSTYYADSVKGRFTISRDNAKNTVYLQMNSLKPEDTAVYYCAADGDTVGHSYRYDYWGQGTQVTVSS | low polyreactivity
QVQLVESGGGLVQAGGSLRLSCAASGSIFSYYAMGWYRQAPGKERELVADITANDGSTYYADSVKGRFTISRDNAKNTVYLQMHSLKPEVTAVYYCAAASDLYGSIWIETGVTSDYWGQGTQVTVSS | high polyreactivity
QVQLVESGGGLVQAGGSLRLSCAASGRIFTRYAMGWYRQAPGKERELVAAINYRGSSTYYADSVKGRFTISRDNAKKTVYLQMNSLTPEDTAVYYCNTYGQTDTYWRYYYWGQGTQVTVSS | high polyreactivity
QVQLVESGGGLVQSGGSIRLSCAASGSTFLWYCMGWYRQAPGKERELVASISRGGGTDYADSVKGRFTISRDNAKNTVYLQMNSLKPEDTAVYYCAATGVNRYDHWGQGTHVTVSS | low polyreactivity
